Like-named read-outs stand apart in the source and are kept apart here.
Legend:
[1] = target: SARS-CoV-2 Spike Trimer, His Tag (BA.4/Omicron) (MALS verified) (AcroBiosystems, SPN-C5229) (SARS-CoV-2) (UniProt P0DTC2); assay: competition ELISA: blocks biotin-ACE2 binding to coated spike
[2] = target: Recombinant SARS-CoV-2 BA.2 Spike (GCN4-IZ) His Protein, CF (R&D, 11109-CV) (SARS-CoV-2) (UniProt P0DTC2); assay: as above
[3] = target: SARS-CoV-2 B.1.1.529 Spike Protein (Omicron) (SARS-CoV-2) (UniProt P0DTC2); assay: as above
[4] = target: SARS-CoV-2 Spike Trimer, His Tag (BA.5/Omicron) (MALS verified) (AcroBiosystems, SPN-C522e) (SARS-CoV-2) (UniProt P0DTC2); assay: as above
[5] = target: SARS-CoV-2 B.1.617.2 Spike Protein (R&D, Cat. #10878-CV) (SARS-CoV-2) (UniProt P0DTC2); assay: direct ELISA on coated spike
[6] = target: SARS-CoV-2 B.1.617.2 Spike Protein (R&D, Cat. #10878-CV) (SARS-CoV-2) (UniProt P0DTC2); assay: competition ELISA: blocks biotin-ACE2 binding to coated spike
[7] = target: SARS-CoV-2 B.1.617.2 Spike Protein (R&D, Cat. #10878-CV) (SARS-CoV-2) (UniProt P0DTC2); assay: as above; remark: listed apart in the source
[8] = target: SARS-CoV-2 B.1.617.2 Spike Protein (R&D, Cat. #10878-CV) (SARS-CoV-2) (UniProt P0DTC2); assay: BLI (ForteBio), mAb on AHC sensor, spike in solution
[9] = target: SARS-CoV-2 B.1.1.529 Spike Protein (Omicron) (SARS-CoV-2) (UniProt P0DTC2); assay: as above

Substance	IC50 [1] [nM]	IC50 [2] [nM]	IC50 [3] [nM]	IC50 [4] [nM]	EC50 [5] [nM]	IC50 [6] [nM]	IC50 [7] [nM]	Kd [8] [nM]	Kd [9] [nM]
Bebtelovimab (antibody)	4.07	3.08	6.73	3.46	–	–	–	–	–
Casirivimab (antibody)	–	–	–	–	0.0399	1.1	0.956	0.484	7.82
Imdevimab (antibody)	–	–	–	–	0.0671	–	–	1.53	456

From patent US20260250363A1
